Numbering of substitutions follows the chain as printed. Read-outs that look alike come from different tables or passages of the source.
Assays:
[1] = molecular target: T1, L1 (DV1-GV4), recombinant soluble human Vδ1/Vγ4 γδ TCR heterodimer (human); assay: SPR (Reichert 4SPR): antibody on a Protein A chip, human Vδ1 antigen flowed; column 'Affinity to Vδ1 (nM)'
T1 construct: Biotinylated in the DELFIA ranking assay; also called human TRDV1; human Vδ1 antigen
Method: Human Vδ1 antigen was flown over the cell at a 1:3 dilution series with top concentrations of 50 nM with the following parameters: 180s association, 900s dissociation, flow rate 25 μL/min, running buffer PBS+0.05% Tween-20. The chip surface was regenerated using 20 mM phosphoric acid following each injection. All experiments were performed at room temperature. Steady state fitting was determined according to Langmuir 1:1 binding using TraceDrawer software (Reichert Technologies.

[2] = molecular target: T2, human EGFR, recombinant protein (human, UniProt P00533 25-645); assay: SPR
T2 construct: Bought protein; also called human EGFR antigen

EGFR on HT-29 cells = molecular target: T3, EGFR on HT-29 cells (human, UniProt P00533); assay: flow cytometry on HT-29 cells, 20 min at 4 C, anti-human IgG secondary
T3 construct: full length, cell surface; also called EGFR+ colon cancer cell line HT-29; HT-29 tumour cell
Method: After washing, cells were incubated for a further 20 minutes with anti-human IgG secondary antibodies (Jackson Immunoresearch) and live/dead stain (eFluor 780, Invitrogen) before washing and fixing using CellFix. The amount of antibody bound to each cell type was determined using flow cytometry (MACSQuant Analyser 10, Miltenyi Biotech).

[3] = molecular target: T4, Vδ1 TCR on human Vδ1-positive γδ T cells (human, UniProt A0A1B0GX56 22-115); assay: flow cytometry on primary Vδ1 γδ T cells, 4 C, anti-human IgG-APC secondary, median fluorescence
T4 construct: also called Vδ1 γδ T-cells; cell surface Vδ1 TCR
Method: (§1) Target cells were stained with varying concentrations of antibody, followed by a fluorescent anti-human IgG detection antibody. All incubation steps were performed at 4° C. and mAb binding was determined using flow cytometry to measure the median level of fluorescence. Logarithmic four parameter dose-response curves were fitted using GraphPad Prism 9.
(§2) Target cells were detached from tissue culture flask, resuspended in PBS and seeded at a final density of 100,000 cells per well in v-bottom 96-well plates. Cells underwent centrifugation and the cell pellets were resuspended in FcR blocking reagent according to the manufacturer's instructions, and incubated for 20 minutes at 4C prior to a further wash. Antibodies were diluted to 500 nM in PBS and serially diluted 1:10 in PBS to 50 μM, and added to the cells, followed by a 20-minute incubation at 4C. To determine the quantity of mAb bound to the cell surface, the cells were then stained with a murine anti-human IgG secondary antibody, conjugated to APC (dilution: 1:100) in addition to a viability dye. Following 20-minute incubation at 4C, the cells were washed twice, and fluorescence measured using the MACSQuant.

[4] = molecular target: T4, Vδ1 TCR on human Vδ1-positive γδ T cells; assay: flow cytometry on skin-derived Vδ1+ cells, 20 min at 4 C, anti-human Fc secondary
Method: Cells were washed and stained with an anti-human Fc secondary antibody (Jackson Immunoresearch) and a viability dye for dead cells (eFlour 780, Invitrogen) for 20 minutes at 4° C. The cells were washed in FACS buffer and resuspended in Cell Fix (BD sciences) before analysis on a MACSQuant Analyser 10 flow cytometer (Miltenyi).

EGFR on A431 cells [5] = molecular target: T5, EGFR on A431 cells (human, UniProt P00533 25-1210); assay: EGF blockade by flow cytometry: A431 cells pre-incubated with antibody 30 min at 4 C, then EGF-AF647; EGF binding MFI
T5 construct: whole, on cells; also called EGFR-positive A431; EGFR+A431 target cells
Method: Cells were then incubated for 1 hour at 4 degrees C., washed and stained with Live/dead dye (eFluor 520, Fisher) and incubated for a further 20 min at 4 degrees. The cells were washed in FACS buffer and resuspended in Cell Fix (BD sciences) before incubating overnight at 4° C. in the dark.

[6] = molecular target: T1, L1 (DV1-GV4), recombinant soluble human …; assay: SPR
[7] = molecular target: T1, L1 (DV1-GV4), recombinant soluble human …; assay: SPR; remark: listed apart in the source
[8] = molecular target: T1, L1 (DV1-GV4), recombinant soluble human …; assay: SPR; remark: listed apart in the source
[9] = molecular target: T1, L1 (DV1-GV4), recombinant soluble human …; assay: SPR (Reichert 4SPR), antibody on Protein A chip, human Vδ1 antigen as analyte, 1:1 fit, mean of two replicates (Avg KD)
From the text: The binding affinity of the antibodies to target (i.e. the Vδ1 chain of a γ TCR) is established by SPR analysis using a Reichert 4SPR instrument (Reichert Technologies).
The binding interaction of Vδ1 and the affinity-matured mAbs were modelled according to Langmuir 1:1 binding.

[10] = molecular target: T2, human EGFR, recombinant protein; assay: SPR (Reichert 4SPR): antibody captured on a Protein A chip, human EGFR flowed at 100 nM
[11] = molecular target: T4, Vδ1 TCR on human Vδ1-positive γδ T cells; assay: flow cytometry binding to γδ T cells, Donor 2 (TS164); column head printed IC50 (nM), the text calls it EC50 of binding; same value in the table of FIG. 11C
Method: (§3) (FIGS. 11A-11B) The level of binding by the V61 mAbs to two γδ T cell donors, ATS006 (FIG. 11A) and TS164 (FIG. 11B). γδ T cells were stained with varying concentrations of Vδ1 mAbs, followed by a fluorescent anti-human IgG detection antibody (xxx). All incubation steps were performed at 4° C. and mAb binding was determined using flow cytometry to measure the median level of fluorescence. Logarithmic four parameter dose-response curves were fitted using GraphPad Prism 9.
(§4) A range of target cells were assayed to determine the specificity and affinity of Vδ1 mAb binding. This included expanded skin-derived Vδ1 γδ T-cells, HEK293T cells, Raji cells, and multiple leukocyte subsets within human primary blood mononuclear cells. Adherent or semi-adherent cells (skin-derived Vδ1 γδ T-cells, HEK293T) were detached from tissue culture flask and resuspended in PBS. Similarly, non-adherent cell types (Raji, PBMC), were harvested and resuspended in PBS. Cells were seeded at a final density of 100,000 cells per well in v-bottom 96-well plates. Cells underwent centrifugation and the cell pellets were resuspended in FcR blocking reagent according to the manufacturer's instructions, and incubated for 20 minutes at 4C prior to a further wash. […] To determine the quantity of mAb bound to the cell surface, the cells were then stained with a murine anti-human IgG secondary antibody, conjugated to APC (product code . . . , dilution: 1:100). For Vδ1 γδ T-cells, HEK293T and Raji, the cells were also stained solely with a viability dye.

[12] = molecular target: T4, Vδ1 TCR on human Vδ1-positive γδ T cells; assay: flow cytometry binding to γδ T cells, Donor 1 (ATS006); column head printed IC50 (nM), the text calls it EC50 of binding; same value in the table of FIG. 11C
Method: as §3, §4

[13] = molecular target: T6, cyno antigen DV1/GV77, recombinant cynomolgus Vδ1 γδ TCR heterodimer (cynomolgus monkey); assay: DELFIA ELISA, cyno antigen, heat map; all column labels read ADT1-4-110, clone assigned by the HC/LC CDR3 pair as in FIG. 4A and FIGS. 22-23
T6 construct: also called cyno TRDV1; Cyno DV1-77; not shown: Delta-chain CDR3/J and constant part, the GV77 gamma chain, and any tags

[14] = molecular target: Vδ1 TCR on cynomolgus γδ T cells (cynomolgus monkey); assay: cell-based or functional assay
[15] = molecular target: T2, human EGFR, recombinant protein; assay: SPR (Reichert 4SPR): antibody captured on a Protein A chip, human EGFR flowed at 100 nM; remark: listed apart in the source
EGFR on A431 cells [16] = molecular target: T5, EGFR on A431 cells; assay: flow cytometry on A431 cells, 4 C, anti-human IgG-APC secondary, median fluorescence
Method: as §1, §2

[17] = molecular target: T2, human EGFR, recombinant protein; assay: method not stated for this control

T4 sequence (A0A1B0GX56 22-115 limits assumed, stated change not applied): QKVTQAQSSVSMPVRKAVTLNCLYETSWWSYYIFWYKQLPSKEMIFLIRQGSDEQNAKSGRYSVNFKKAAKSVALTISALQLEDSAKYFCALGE
T1 sequence (main, as listed by the source): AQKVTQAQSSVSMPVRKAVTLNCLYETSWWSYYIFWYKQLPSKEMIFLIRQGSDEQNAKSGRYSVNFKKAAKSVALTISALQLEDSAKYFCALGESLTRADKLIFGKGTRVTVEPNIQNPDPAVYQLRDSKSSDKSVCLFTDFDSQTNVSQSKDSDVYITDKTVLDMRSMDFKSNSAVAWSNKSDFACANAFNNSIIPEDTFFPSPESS
Vδ1 TCR on cynomolgus γδ T cells (cynomolgus monkey), sequence (chain, as listed by the source): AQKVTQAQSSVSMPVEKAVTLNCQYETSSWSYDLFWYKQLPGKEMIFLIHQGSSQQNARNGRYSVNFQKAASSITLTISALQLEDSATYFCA
T6 sequence (delta, as listed by the source limits assumed): as the sequence (chain, as listed by the source) above

B1: ADT1-4-2/ADT3-2 (bispecific antibody)
heavy: EVQLQQSGPGLVKPSQTLSLTCAISGDSVSSKSAAWNWIRQSPSRGLEWLGRTYYRSKWSTDYAASVKSRITINPDTSKNQLSLQLNSVTPEDTAVYYCARTWVGYVDRWGQGTLVTVSSASTKGPSVFPLAPSSKSTSGGTAALGCLVKDYFPEPVTVSWNSGALTSGVHTFPAVLQSSGLYSLSSVVTVPSSSLGTQTYICNVNHKPSNTKVDKKVEPKSCDKTHTCPPCPAPELAGAPSVFLFPPKPKDTLMISRTPEVTCVVVDVSHEDPEVKFNWYVDGVEVHNAKTKPREEQYNSTYRVVSVLTVLHQDWLNGKEYKCKVSNKALPAPIEKTISKAKGQPREPQVYTLPPSRDELEEGPVSLTCLVKGFYPSDIAVEWESTYGPENNYKTTPPVLDSDGSFFLYSKLTVSYWRWYKGNVFSCSVMHEALHNHYTQKSLSLSPG
light: DIQMTQSPPALSASVGDRVTITCRASQDINDWLAWYQHKPGKAPKLLIYDASSLESGVPLRFSGSGSGTEFTLTISSLQPDDFATYYCQQKYSAPQVTFGQGTRLEIKRTVAAPSVFIFPPSDEQLKSGTASVVCLLNNFYPREAKVQWKVDNALQSGNSQESVTEQDSKDSTYSLSSTLTLSKADYEKHKVYACEVTHQGLSSPVTKSFNRGEC
notes: mAb2; also called ADT1-4-2 × LEE; ADT1-4-2xLEE
B1 was tested, and the Kd [1] was 0.24 nM, the Kd [2] was 1.49 nM and the EC50 (EGFR on HT-29 cells) was 0.537 nM. For the same binder, the “EC50 (read off the curve)” value [3] was roughly 0.8 nM, the EC50 [4] was 0.276 nM and the EC95 [4] was 2.7 nM. The EC50 (EGFR on A431 cells [5]) was 2.92 nM.

B2: ADT1-4-2/ADT3-7 (bispecific antibody)
heavy: B1 heavy with Y421Q, K422Q
light: B1 light
notes: mAb2; also called ADT1-4-2xLEE3
B2 gave a Kd [2] of 8.63 nM, a Kd [6] of 0.462 nM and an EC50 (EGFR on A431 cells [5]) of 8.66 nM.

B3: ADT1-4-1 (antibody, IgG1, V domains shown)
VH: EVQLQQSGPGLVKPSQTLSLTCAISGDSVSSKSAAWNWIRQSPSRGLEWLGRTYYRSKWSTDYAASVKSRITINPDTSKNQLSLQLNSVTPEDTAVYYCARTWVGYADVWGQGTLVTVSS
VL: DIQMTQSPPALSASVGDRVTITCRASQDINDWLAWYQHKPGKAPKLLIYDASSLESGVPLRFSGSGSGTEFTLTISSLQPDDFATYYCQQRYSTPIVTFGQGTRLEIK
notes: IgG1
B3 gave a Kd [7] of 0.08 nM and a Kd [8] of 0.08 nM.

B4: ADT1-4 (parental) (antibody, IgG1, V domains shown)
VH: B3 VH with E1Q, V104S, A107V
VL: B3 VL with L60S, R91S, I96Q
notes: IgG1; also called G04; 1245_P02_G04
For B4, the Kd [9] was 149 nM, the binding result [10] was “no binding (tested: 100 nM)” and the Kd [6] was 115 nM. The EC50 [11] was 576 nM and the EC50 [12] was 108 nM.

B5: ADT1-4-139 (antibody, IgG1, V domains shown)
VH: B3 VH with A107V, V109Y
VL: B3 VL with R91G, I96Q, V97L
notes: IgG1
In the case of B5, the “Heat Map (Cyno) value (ELISA signal)” value [13] is reported as 57600.

B6: ADT1-4-2 (antibody, IgG1, V domains shown)
VH: B3 VH with A107V, V109R
VL: B3 VL with R91K, T94A, I96Q
notes: IgG1
B6 was tested, and the Kd [6] was 0.522 nM, the “EC50 (read off the curve), TCR downregulation, donor AD8170” value [14] was 4 to 5 nM and the “EC50 (read off the curve), TCR downregulation, donor AM945BA” value [14] was roughly 2 nM. B6: no binding (tested: 100 nM) [15]; no binding (tested: 500 nM) (EGFR on A431 cells [16]).

B7: D1.3xFS1-67 control (bispecific antibody, V domains shown)
VH: QVQLQESGPGLVRPSQTLSLTCTVSGSTFSGYGVNWVRQPPGRGLEWIGMIWGDGNTDYNSALKSRVTMLVDTSKNQFSLRLSSVTAADTAVYYCARERDYRLDYWGQGSLVTVSS
VL: DIQMTQSPSSLSASVGDRVTITCRASGNIHNYLAWYQQKPGKAPKLLIYYTTTLADGVPSRFSGSGSGTDYTFTISSLQPEDIATYYCQHFWSTPRTFGQGTKVEIKR
notes: Only one entry is named for the whole molecule; it may hold heavy and light chains together; also called D1.3 FS1-67
B7 was tested, and the Kd [17] was 1 nM, the EC50 (EGFR on HT-29 cells) was 0.281 nM and the binding result [3] was “no binding (tested: 500 nM)”. For the same binder, the “EC50 (read off the curve)” value (EGFR on A431 cells [16]) was roughly 8 nM and the “MFI (at saturation)” value [4] was roughly 0.495 MFI.

— patent US20240132599A1 (GAMMADELTA THERAPEUTICS, published 2024)
